From PMC3625156, “Biochemical Characteristics of New Delhi Metallo-β-Lactamase-1 Show Unexpected Difference to Other MBLs” (PLoS ONE, 2013) come the findings set out here.

Broadly, the Km is the concentration of substrate that gives half-maximal velocity. A word on the kcat: it is the maximal rate divided by the concentration of active sites. As usually defined, the kcat/Km is the turnover number divided by the Michaelis constant.

Data set [1] has as its target T1, New Delhi metallo-β-lactamase-1 (NDM-1) (Klebsiella pneumoniae, UniProt C7C422).
T1 construct: gene blaNDM-1; native (no fusion or tag) NDM-1
As to the kind of experiment: initial hydrolysis rate of […] substrate by purified enzyme at varied ZnSO4. The format is biochemical.

The test system of data set [2] is CCN1CCN(C(=O)N[C@@H](C(=O)N[C@@H]2C(=O)N3[C@@H]2SC(C)(C)[C@@H]3C(=O)O)c2ccccc2)C(=O)C1=O. As to the kind of experiment: purified protein. The note with it: Zn2+. In kind it is biochemical, Klebsiella pneumoniae.
Data set [3] deals with CO/N=C(\C(=O)N[C@@H]1C(=O)N2C(C(=O)O)=C(COC(C)=O)CS[C@H]12)c1csc(N)n1. As to the kind of experiment: purified protein. The format is biochemical, Klebsiella pneumoniae. The note with it: Zn2+.
For data set [4], the system named is C[C@@H](O)[C@H]1C(=O)N2C(C(=O)O)=C(S[C@@H]3CN[C@H](C(=O)N(C)C)C3)[C@H](C)[C@H]12. As to the kind of experiment: purified protein. In kind it is biochemical, Klebsiella pneumoniae. The note with it: Zn2+.
Data set [5] relates to CC1(C)S[C@@H]2[C@H](NC(=O)Cc3ccccc3)C(=O)N2[C@H]1C(=O)O. As to the kind of experiment: purified protein. In kind it is biochemical, Klebsiella pneumoniae. The note with it: Zn2+.
Data set [6] relates to CO[C@@]1(NC(=O)Cc2cccs2)C(=O)N2C(C(=O)O)=C(COC(N)=O)CS[C@@H]21. As to the kind of experiment: purified protein. In kind it is biochemical, Klebsiella pneumoniae. The note with it: Zn2+.
The test system of data set [7] is C[C@@H](O)[C@H]1C(=O)N2C(C(=O)[O-])=C(SC3Cn4cnc[n+]4C3)[C@H](C)[C@H]12. As to the kind of experiment: purified protein. The note with it: Zn2+. The format is biochemical, Klebsiella pneumoniae.
Data set [8] concerns CC(C)(O/N=C(\C(=O)N[C@@H]1C(=O)N2C(C(=O)[O-])=C(C[n+]3ccccc3)CS[C@H]12)c1csc(N)n1)C(=O)O. As to the kind of experiment: purified protein. The note with it: Zn2+. In kind it is biochemical, Klebsiella pneumoniae.

T1 sequence (C7C422 29-270 limits assumed): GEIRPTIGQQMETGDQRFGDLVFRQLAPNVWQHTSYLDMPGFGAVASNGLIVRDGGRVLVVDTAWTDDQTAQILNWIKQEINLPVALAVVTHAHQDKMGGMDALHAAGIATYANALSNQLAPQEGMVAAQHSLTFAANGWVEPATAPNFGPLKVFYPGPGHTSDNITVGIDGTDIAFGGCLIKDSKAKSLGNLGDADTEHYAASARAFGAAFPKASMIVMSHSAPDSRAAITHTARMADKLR

Turning to `CO/N=C(\C(=O)N[C@@H]1C(=O)N2C(C(=O)[O-])=C(C[N+]3(C)CCCC3)CS[C@H]12)c1csc(N)n1` [cefepime], the “initial hydrolysis rate of 0.5 mM substrate by purified enzyme at varied ZnSO4” value in data set [1] was “The hydrolysis rates of cephem (ceftazidime and cefepime) were found to be very sensitive to the ZnSO4 concentration”.
“New Delhi metallo-β-lactamase-1 (NDM-1) (Klebsiella pneumoniae)”: the Km in data set [2] was determined as 69 µM; in data set [3], 43 µM; in data set [4], 42 µM; in data set [5], 103 µM; in data set [6], 63 µM; in data set [7] it was 155 µM. Moreover, the Michaelis-Menten constant (Km) in data set [8] came out at 74 µM. Moreover, the catalytic constant (kcat) in data set [2] worked out at 8.3 s⁻¹; in data set [3], 31.5 s⁻¹; in data set [4], 30.8 s⁻¹; in data set [5] it was 27.5 s⁻¹; in data set [6] it was 38.3 s⁻¹; in data set [7], 106 s⁻¹. In addition, in data set [8], the kcat was 60.9 s⁻¹. Besides, the catalytic efficiency (kcat/Km) in data set [2] came to 120000 M⁻¹ s⁻¹; in data set [3], 740000 M⁻¹ s⁻¹; in data set [4], 730000 M⁻¹ s⁻¹; in data set [5], 270000 M⁻¹ s⁻¹; in data set [6], 610000 M⁻¹ s⁻¹; in data set [7], 680000 M⁻¹ s⁻¹. For the same molecule, the catalytic efficiency (kcat/Km) in data set [8] stood at 830000 M⁻¹ s⁻¹.
